Data taken from article PMC11055865.

Target: MCM8-9 complex (FLAG-tagged MCM8 and MBP-tagged MCM9), wild type (human) (UniProt Q9UJA3)
Experiment: mass photometry; MCM8-9 preincubated with HROB (both 1 μM) 10 min at room temperature in 25 mM Tris-HCl pH 7.5, 3 mM EDTA, 50 mM NaCl, then rapidly diluted to 200 nM; complex largely fell apart upon dilution

MCM8-9 complex (FLAG-tagged MCM8 and MBP-tagged MCM9), wild type (human), sequence (Q9UJA3 whole entry, chain 1 of 2): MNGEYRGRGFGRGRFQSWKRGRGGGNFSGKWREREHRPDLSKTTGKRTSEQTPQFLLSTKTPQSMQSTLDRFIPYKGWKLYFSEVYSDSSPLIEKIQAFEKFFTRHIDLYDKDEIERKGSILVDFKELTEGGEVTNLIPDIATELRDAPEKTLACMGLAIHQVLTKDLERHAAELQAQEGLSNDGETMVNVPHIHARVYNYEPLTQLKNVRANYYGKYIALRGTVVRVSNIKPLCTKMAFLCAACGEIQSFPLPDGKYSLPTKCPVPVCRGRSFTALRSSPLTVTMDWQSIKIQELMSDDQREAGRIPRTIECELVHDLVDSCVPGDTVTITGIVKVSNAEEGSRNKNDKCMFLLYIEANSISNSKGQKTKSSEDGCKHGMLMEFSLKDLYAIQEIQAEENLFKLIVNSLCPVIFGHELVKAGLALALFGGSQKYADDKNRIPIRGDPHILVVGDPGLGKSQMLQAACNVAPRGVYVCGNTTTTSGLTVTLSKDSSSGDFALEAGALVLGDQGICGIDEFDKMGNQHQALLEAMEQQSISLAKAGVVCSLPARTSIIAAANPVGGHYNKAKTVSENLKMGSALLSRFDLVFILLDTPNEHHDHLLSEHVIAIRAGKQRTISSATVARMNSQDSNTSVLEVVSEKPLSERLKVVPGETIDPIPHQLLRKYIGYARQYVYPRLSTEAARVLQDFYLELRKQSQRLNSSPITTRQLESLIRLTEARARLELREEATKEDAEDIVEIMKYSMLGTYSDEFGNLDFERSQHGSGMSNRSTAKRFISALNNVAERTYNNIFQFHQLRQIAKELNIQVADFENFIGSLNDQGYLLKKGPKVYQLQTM
MCM8-9 complex (FLAG-tagged MCM8 and MBP-tagged MCM9), wild type (human), sequence (Q9NXL9 whole entry, chain 2 of 2, further chain): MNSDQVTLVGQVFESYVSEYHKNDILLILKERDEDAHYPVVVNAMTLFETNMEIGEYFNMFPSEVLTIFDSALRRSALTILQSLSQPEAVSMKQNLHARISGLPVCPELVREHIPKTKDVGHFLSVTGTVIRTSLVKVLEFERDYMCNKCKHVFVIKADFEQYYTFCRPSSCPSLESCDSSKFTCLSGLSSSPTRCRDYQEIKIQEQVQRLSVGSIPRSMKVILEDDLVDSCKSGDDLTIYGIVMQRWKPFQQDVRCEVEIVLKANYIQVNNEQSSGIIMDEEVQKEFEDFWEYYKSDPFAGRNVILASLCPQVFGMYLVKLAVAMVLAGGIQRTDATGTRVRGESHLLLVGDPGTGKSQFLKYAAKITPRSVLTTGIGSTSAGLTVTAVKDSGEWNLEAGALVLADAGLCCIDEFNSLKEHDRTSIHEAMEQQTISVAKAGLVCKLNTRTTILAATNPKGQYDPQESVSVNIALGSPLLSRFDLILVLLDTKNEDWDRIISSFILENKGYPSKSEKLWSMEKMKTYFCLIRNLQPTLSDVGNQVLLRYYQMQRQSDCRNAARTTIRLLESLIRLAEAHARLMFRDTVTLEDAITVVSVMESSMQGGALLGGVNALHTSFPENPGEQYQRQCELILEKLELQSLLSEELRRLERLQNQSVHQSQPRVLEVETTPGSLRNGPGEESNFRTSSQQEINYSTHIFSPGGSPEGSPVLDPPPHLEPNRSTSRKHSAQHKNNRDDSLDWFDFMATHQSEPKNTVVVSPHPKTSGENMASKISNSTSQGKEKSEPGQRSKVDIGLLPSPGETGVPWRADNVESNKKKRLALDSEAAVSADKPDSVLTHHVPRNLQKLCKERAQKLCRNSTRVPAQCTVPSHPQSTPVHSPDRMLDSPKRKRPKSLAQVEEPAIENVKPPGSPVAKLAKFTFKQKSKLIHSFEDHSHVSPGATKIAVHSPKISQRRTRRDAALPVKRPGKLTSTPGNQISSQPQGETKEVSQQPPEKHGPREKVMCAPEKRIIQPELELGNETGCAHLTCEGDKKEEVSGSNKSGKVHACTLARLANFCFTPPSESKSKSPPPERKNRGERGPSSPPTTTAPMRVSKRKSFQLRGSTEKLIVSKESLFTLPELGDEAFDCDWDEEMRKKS

- stoichiometry N (HROB per MCM8-9 heterodimer): 1
Substance: HROB-FLAG (wild type HROB, homologous recombination factor with OB-fold) (from UniProt Q8N3J3-4 1-646) (natural protein)
